US20210113687A1, “METHODS FOR TREATING INFLAMMATION” (NEW YORK UNIVERSITY, priority 2013, published 2021)

Biological target: netrin-1 secreted by mouse macrophages (conditioned medium of oxLDL-, CoCl2-, HIF-1alpha- or palmitate-treated macrophages) (mouse) (UniProt O09118)
Experiment: cell-based or functional assay

recombinant rat UNC5b-Fc chimera (cat #1006-UN, R&D Systems) (from UniProt O08722 27-373) (Fc fusion)
inhibition of migration of naive macrophages to CCL19 by Ntn1+/+ conditioned medium with UNC5b-Fc: 25%
